Our source for the protein production values is a protein production outcome set (Wang et al. 2014).

The series is described as follows: label from the status in PepcDB records.

For “MLIDIALATYNGEKYIQEMLNSISNQTYQDFMIHLRDDGSTDNTLTLCENHKLYEQGKLKIYKDNIKGLGASKNFLKILGHCNSEYIFLCDQDDFWMKDKIQKMLDHIQKHEYKNNIKVPTLVFSDLQIVDRSLNIIADSFYRNSIKSSMCSSPFDFLLSNHIPGCAMVVNKSLLESIQPLPENFRMHDWWLAFVASFYGKIAYLDEPLIKYRQHGGNTVGVPGMNINILRQIKSILNFRDLLDKGLLHKKKMEIYIDKTCSNKILSYESNRFYDFLKGNMPFLEKNKIFKQIKFGEPLILSYLVWLFL”, the protein production result is “failed”.
Then “MLIENAVDFIENANIGIHTVSPEGIIKYANEHELTVLGYTEDEYVGHHVSEFQFDKSCLEQMMIKLAKFESFSNFPAMVCGKLKMKYILYNSSVYAEDGEFVHTRCFGNEISKSVYQACKVDYKKSLTNRVD”, with “failed”; and “MLIKKIDLHKDPIRKLFFYYFIPLAFSMISLSTYSMIDGMFVGKKLGKEAIAAVNIAWPIFPGLIAYELLFGFGAASIVGYFLGQNKTHRARLVFSSVFYFVAISAFILSMALLPFSETIARFFGSNDALLSMSKRYIEIILMGAVFMVLHPLADVFVVNDKRPILAMVAMLIGSLANIFFNYLFIFVLKVGVQGSAIATVIGHAIGVLVLMQHFWRKKGQLYFIKRFSLSSVISSAKSGVPQSTAEFSASVMILLFNTAIMHTAGERFVSMYGIVMYNAIIFFTTLFAISQGIQPIASFSYGARNLERVKEVFVFGLKAAFCIGIVFYGAYYFLDEFLIKLYLQPSEQDPLFMQETKRAMNIYYVGYIFLGMTLLCAVFFQSIQRTKSSFIITLSHTLGFIVILLPILSHFYGINGVWVTYPIAQFLAFLVALGVTYYEIKKGVFTTYKEKNPIALKT”, with “failed”.
To “MLIKSIKLTNILSFGEAAETIELRPLNVVIGPNGSGKSNLIAAIELFRALPKDAPAFFRREGGIHDWLWKGGEIPPVATIESVFDEKGPLSGLRYALRFTVVGQHFEIIEERIEEEAAEGAQTPPPYHFKDGRGALRALLANEGEIKAWSFVIPSEIDPTQSILAQRKDPHQYPELTSLGAVLPTMRCYREWTMGPQSPPRQDQKTDLRNDYLDPYGAGNLALVLQRLGNKPALKKRFLEALRLLYEGIDDYGVTIEGGTSQIFFHEGGRFTIPASRLSDGTLRYLCLLAILLDPAPPPLLCIEEPELGLHPDILPTLADLLKEASERTQVIVTTHSDGLVDAMTDRPEAVLIAEKNENGTTLTRLDGETLKPWLAKYRLGELWTRGGIGGTRWLEHHHHHH” belongs “failed”.
Then “MLILLPDFIGHPSCFRGLLARLGATDCRLVDYHRLDAYASIEALASQVLDGLAEEPDWLIGYSFGGLVGYEMARQLPASRLLMIDSHLPWPALRRMPPSEQYQRWLSAEMREWIALMSELGELREEVLLRNVELFGRWQPRHRLARASWVRCRDDAGRDPAAERWCDLIERLDTFPCERPHHLALQDPAVIDFIVHTVSK”, with “failed”; and “MLIPHDLLEADTLNNLLEDFVTREGTDNGDETPLDVRVERARHALRRGEAVILFDPESQQCQLMLRSEVPAELLRD”, with “not failed”.
Turning to “MLIPQQKELNSISLLAEVSRTVTNENDISKVLRIVLFIMSEHLDMLRGMITILNRETGEITTNESFGLTEEEMERGRYRIGEGIIGQVVKTGKPFIVPNIGDEPLFLDRTRSRQKTKKENLCFICIPIRSGAEIIGTLSADRQLEPSLLKESGKRMKAEDERMDLLQHYVDLLSIIASMISQAVRLKQIAHEATAGIAVVEHKPQQEK”, the protein production entry was “failed”.
Then “MLIQDLSHKNIKDYTSIYGEEYINRIVEKAEKLRDITLTHVNSTSLGGGVAEILYSLVPLMNSIGITTRWEVIKGGNEFFNVTKKIHNALQGAEIDLSDEEKRIYLENNKWNVENELVLDSTHIVVHDPQPLPIRKFAENNKKWIWRCHIDLSTPYKPVWLFISQLLRGYEASIFHLKEYIHPETPTPIKYVMPPSIDPLSDKNKELSWSTIEKILNRYGIDPEKPILLQVARFDPWKDPFAAIDVYRLVKKEFPDTQLLLVTSMATDDPEGWIYYEKTLKYAGMDEDIFILTNLKNVGTLEVNAFQRAATVVLQMSRREGFGLAVTEALWKRKPVVARPRGGIKLQVIDGVTGHLAETVEEAAKKTIYLIKNPQKRKELGENGYKHVLKHFTIVRHIENYLDLLAKIV”, with “failed”; and “MLISALIVMVITYCLIISRSITKIPPWASMFFGGILMVILGIISPEEALQSINLDVILFLITLFTFASALEVSGFLKFLAYKIIEKFKEPRKVLFYILLYSGLLSNLVTNDGVSASWTPVILELSRMIGVSEVPFLYALAVGVTIGSVIMPTGNPQNLLIALESGIKNPFITFTIYLTLPSIISLIIAYFILFRLFRKSLSLPSGINIKKEEEEKVDFDRRLGYLTLTLLVVTIILFFSLSFFKIDILLGSLVTSSILLLLTEKRRDIVRRMDWPTILFFIGLFIFTDGVLKSGIIQYLSNFLPPPDSVASIMIVSILLSQVLSNVPLVAIYIPIMISHSGITVVDWLALAAGSTIAGNFTILGAASNVIISEASESRGGKGFNFVEFMKYTIPILIPNAIIIYLFLVLFR”, with “failed”.
Then “MLISIAFLLVLYLLNYSSFRMLKSFLTLKKISQYAYLWFFILLSIGEAAFVFYRNIMPSHLFVLTSACSFVSFIIFILSLSFYGFSYSIEKIDFLHSRRKSLKNFLKLGFYLALLGYFWRGFYEGLARPKIKETPIYLDKLDKELKIILLTDMHVGSLLQKDFVDYIVEEVNQKEVDMVLIGGDLVDESIEKVKSFLLPLNNLKSTHGTFYVPGNHEYYHGIEPILSFLDTLNLTILGNECVHLGGINLCGVYDYFARKRQNFAPDIDKALKKRNESKPTILLAHQPKQIRSLKESHSVDLVLSGHTHAGQIFPFSLLVKLAQTYLHGLYKHSPTTQIYVSSGAGYWGIPLRFLAPSEIAYLRLLPKNQA”, with “failed”; and “MLITSSLLPPSGTWIFNINSLFCSLSIKNALSNLPLMRFCNSSTTQHTSTLVISLFIISPENIIFFFRIFYYCDNMEREEFLKYLRQGKYDKLAKLINSYSDILSFLDELFTSNKKDDVRRALLVLKRLDNEVIERYLYYILLNLNEKRIIAKEAEEILKKITNKESVEEAILEIAKKPLDEKIVYLFLQNMKEGNIFFRAILEHTKSKNMEESIKILLKNYNSEMILKILANKLYSSEKDERELTINILLNIVDSLTDEQKNILRGHLSVSLLGDEDKKLYRKFKQLFEKLDIPAELSDEQIKSLLKSHGKTTLNIILRENIKLPANFYNREFLKDFLYTGDEEKQFVGVKLISLKKDSKKKVDLLFRFLNYGYGKAKTAAIRELKKIAQNNNELKKYIENKTLMYAKKMNLGLKISSLRILKEFAKKEHLEFLINEHKRLKELVYKLEEEKFMGGFRHLLMMEEEIRKCNVAMRLIEEIVAEICLKNDIHYNDLKISEKLGYEFYRTMELIGVKNLNLIDIHEFLEDVKRDGELITYLSGIVINNNKIDDNLAKKILEVTEKAEMEDKDVLNANKIMIYASLNRVDKIGEIINMAEGYYSKLAFINGVKKFIDEKLLDEEKINLLIPKIAEMIYSTKKLRLMALEFFKNYPNELVLPILINEIGNYRGEDKLMIDVISNVIFKYPNNIHSIRELLNTDKRNSALKILLKVSEKRPELLEDFIYLLAGMYSSANEEDKKLIKKILKNITTEEQKLILKPIIGDL”, with “failed”.
Then “MLITVYCVRRDLTEVTFSLQVNPDFELSNFRVLCELESGVPAEEAQIVYMEQLLTDDHCSLGSYGLKDGDMVVLLQKDNVGLRTPGRTP”, with “not failed”; and “MLKALKKIFGKADGTQPQSGSSPVPQGPAGATAKGTAPTGEKPTEKRPRKPRPPRADNESGAPRAAEKAEKAEKPAKPAGKEGRDAKPRTDKPRRERKPKPVDNWKLEDFVVEPQEGKTRFHDFNLAPSLMHAIHDLGFPYCTPIQAQVLGFTLRGQDAIGRAQTGTGKTAAFLISIITQLLQTPPPKERYMGEPRALIIAPTRELVVQIAKDAAALTKYTGLNVMTFVGGMDFDKQLKQLEARFCDILVATPGRLLDFNQRGEVHLDMVEVMVLDEADRMLDMGFIPQVRQIIRQTPHKGERQTLLFSATFTDDVMNLAKQWTVDPAIVEIEPENVASDTVEQHVYAVAGSDKYKLLYNLVAQNNWERVMVFANRKDEVRRIEERLTKDGISAAQMSGDVPQHKRIRTLEGFREGKIRVLVATDVAGRGIHIDGISHVINFTLPEDPDDYVHRIGRTGRAGASGTSISFAGEDDAFALPPIEELLGRKITCEMPPAELLKPVPRKH”, with “failed”.
For the sequence “MLKANVFCAGPVEALILDWAGTTIDFGSLAPVYAFMELFKQEGIEVTQAEAREPMGTEKSEHIRRMLGNSRIANAWLSIKGQASNEEDIKRLYDLFAPIQTRIVAQRSQLIPGWKEVFDKLIAQGIKVGGNTGYGPGMMAPALIAAKEQGYTPASTVFATDVVRGRPFPDMALKVALELEVGHVNGCIKVDDTLPGIEEGLRAGMWTVGVSCSGNEVGLDREDWQALSSDEQQSYRQHAEQRLFNAGAHYVIDSVADLETVITDVNRRLARGEKP”, the protein production result was “not failed”.
Then “MLKERILSAIAMIIAVLAGIFLLSPLPFTLILAAVITAAIWEWAQFAGFKRSLSRAIITFVTICLFILLIFANTHYIRAGRFLTDQTIPLLFISCCWWLIAFGLVISYPKSASLWSKSITAKFIFGFCTLIPFFIAILALRFNNYAFNQFQGAYLLLYVCLLVWCADSGAYFFGRAFGKRKLAAKVSPSKSWEGALGGLITSCVMALLFIKLTPNNIFGREFETLPFIIVSVATVAVSSLGDLAESMFKRQANIKDSSNLIPGHGGILDRIDSLTAAIPFFATLFFFVL”, with “failed”; and “MLKFLKNWTLPIAMLVGAVGYPVFISFSFLTPILIFTMLLLTFCKVSPRDLKPKPLHLWLLLIQIFGSLIVYLLLYRFNKIVAEGAMVCVICPTATAAAVITSKLGGSAASLTTYTLIANIGAAIAVPILFPLIEANPGISFIDAFLVILSKVFPLLICPFLAAWFLQRFIPKVHKVLLGYHELAFYLWGISLAIVTAQTLYSLINDPADGLTEIMIAVVALIACCLQFFLGKTLGSIYNDRISGGQALGQKNTILAIWMAHTYLNPLSAVGPGSYVLWQNIINSWQLWKKRKKESEKCSNNVSG”, with “failed”.
As to “MLKFLSVRVEDHIAVATLNHAPANAMSSQVMHDVTELIDQVEKDDNIRVVVIHGEGRFFSAGADIKEFTSVTEAKQATELAQLGQVTFERVEKCSKPVIAAIHGAALGGGLEFAMSCHMRFATESAKLGLPELTLGLIPGFAGTQRLPRYVGKAKACEMMLTSTPITGAEALKWGLVNGVFAEETFLDDTLKVAKQIAGKSPATARAVLELLQTTKSSHYYEGVQREAQIFGEVFTSEDGREGVAAFLEKRKPSFSGR”, the protein production result is “not failed”.
Then “MLKFRSHTKELLDGDAIPEKDLFQNLKELDTINKLLGGYKISLSAIDELIKNAAAYKLVDIGCGGGDTLKYMYHWAKRTDKNLSLVGIDIKPVCIEYAKTNTADLPIQYICDDYKQAFNHIEKIDFIHACLFCHHLSEEQLVELIQFALINKTTLVVNDLERNPIAYYSIKWLTAIFSHSYLVKNDAPLSVARGFKKKEWEALLKKAGAATYSVKNKWAFRHQVIVYGNQ”, with “failed”.
